These results are taken from article PMC4294473.

In the assay the target is recombinant human P301S 0N4R Tau (human). As to the kind of experiment: co-sedimentation; cell seeding assay: HEK293T cells expressing P301S 1N4R Tau exposed 3 h to rising concentrations of heparin-assembled, sonicated recombinant Tau aggregates (Sarkosyl-insoluble), 3 days; Sarkosyl-insoluble pellet blotted with HT7.

On to “human P301S 1N4R Tau expressed in HEK293T cells (natural protein)”, for which the fold more seed needed than of TgP301S Tau aggregates for equivalent seeding was over 10 fold and the fold more seed needed than of TgP301S Tau seed for equivalent Sarkosyl-insoluble Tau came out at 50 fold.
